Bridges are numbered along the chain shown (N, C = ends). Where no end group is shown, it is not given here. [ ]: non-standard residue; d: D form. The star is where a group is joined. Acetyl(2-(4-imidazolyl)) = O=C(Cc1c[nH]cn1)*; Aib = CC(C)(N)C(=O)O
Experiments:
Experiment in all cases: cell-based or functional assay
human GLP-1 receptor = human GLP-1 receptor (human, UniProt P43220 24-463)
human glucagon receptor = human glucagon receptor (human, UniProt P47871 26-477)
[1] = target: human GLP-1 receptor (human) (UniProt P43220)
human GLP-1 receptor (human), sequence (P43220 24-463): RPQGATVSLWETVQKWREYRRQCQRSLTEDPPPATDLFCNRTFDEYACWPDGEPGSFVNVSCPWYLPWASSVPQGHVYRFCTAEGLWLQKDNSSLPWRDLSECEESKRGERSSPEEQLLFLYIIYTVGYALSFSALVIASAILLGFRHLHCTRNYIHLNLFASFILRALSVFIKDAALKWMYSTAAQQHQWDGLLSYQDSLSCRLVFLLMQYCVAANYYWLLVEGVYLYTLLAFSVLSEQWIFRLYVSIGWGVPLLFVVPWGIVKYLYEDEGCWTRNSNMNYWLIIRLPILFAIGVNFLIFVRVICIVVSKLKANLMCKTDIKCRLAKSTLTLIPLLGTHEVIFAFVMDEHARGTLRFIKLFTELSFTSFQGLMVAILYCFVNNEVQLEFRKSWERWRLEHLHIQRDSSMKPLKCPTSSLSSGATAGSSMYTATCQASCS

[2] = target: human glucagon receptor (human) (UniProt P47871)
human glucagon receptor (human), sequence (P47871 26-477): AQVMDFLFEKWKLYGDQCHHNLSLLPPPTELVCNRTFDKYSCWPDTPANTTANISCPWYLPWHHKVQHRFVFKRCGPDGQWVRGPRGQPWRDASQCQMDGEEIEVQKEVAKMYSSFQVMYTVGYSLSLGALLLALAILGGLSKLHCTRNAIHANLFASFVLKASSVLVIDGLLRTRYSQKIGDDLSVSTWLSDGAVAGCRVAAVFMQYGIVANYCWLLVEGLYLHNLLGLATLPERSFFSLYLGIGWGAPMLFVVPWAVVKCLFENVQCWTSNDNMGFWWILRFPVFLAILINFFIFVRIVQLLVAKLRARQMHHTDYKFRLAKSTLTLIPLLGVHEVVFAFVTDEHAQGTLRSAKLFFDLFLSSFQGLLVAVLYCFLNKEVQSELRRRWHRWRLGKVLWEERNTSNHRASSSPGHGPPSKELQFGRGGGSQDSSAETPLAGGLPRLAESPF

human glucagon receptor, sequence (P47871 26-477): as above

| Binder | EC50 (cAMP, CHO/GLP-1R) (human GLP-1 receptor) [nM] | EC50 (cAMP, CHO/GCGR) (human glucagon receptor) [nM] | EC50 (cAMP, CHO/GLP-1R) [1] [nM] | EC50 (cAMP, CHO/GCGR) [2] [nM] |
| --- | --- | --- | --- | --- |
| H[Aib]QGTFTSDYSKYLDEKRAKEFVQWLMNTC (bridge 16-20) [oxyntomodulin derivative of SEQ ID NO: 25] | 1.9 | 1.3 |  |  |
| [Acetyl(2-(4-imidazolyl))]GEGTFTSDLSRQMEEEAVRLFIEWAAHSQGTFTSDYSKYLD [oxyntomodulin derivative of SEQ ID NO: 6] |  | > 1000 |  |  |
| [Acetyl(2-(4-imidazolyl))]GEGTFTSDLSRQMEEEAVRLFIEWAAHSQGTFTSDYSRYLDK [oxyntomodulin derivative of SEQ ID NO: 11] | > 1000 | > 1000 |  |  |
| [Acetyl(2-(4-imidazolyl))]SQGTFTSDLSRQLEEEAVRLFIEWLMNK [oxyntomodulin derivative of SEQ ID NO: 8] |  |  | 420 | > 1000 |
| H[Aib]QGTFTSDYAKYLDEKRAKEFVQWLMNTC (bridge 16-20) [oxyntomodulin derivative of SEQ ID NO: 33] | 2.2 | 80.2 |  |  |
| [Acetyl(2-(4-imidazolyl))]SQGTFTSDYSKYLDERRAQDFVAWLKNTGPSSGAPPPS [oxyntomodulin derivative of SEQ ID NO: 3] |  |  | > 1000 | 638 |
| Y[Aib]QGTFTSDYSKYLDEKRAKEFVQWLMNTC (bridge 16-20) [oxyntomodulin derivative of SEQ ID NO: 34] | 12.5 | 1.04 |  |  |
| [Acetyl(2-(4-imidazolyl))]SQGTFTSDYSRYLDEEAVRLFIEWIRNGGPSSGAPPPSK [oxyntomodulin derivative of SEQ ID NO: 18] |  |  | 96.3 | > 1000 |

From patent US20180177850A1 (HANMI PHARM, published 2018)
